Numbering of substitutions follows the chain as printed. Names and notes keep the numbering of the source.
Columns and labels:
human IL-21 [1] = target: T1, human IL-21 (human, UniProt Q9HBE4 32-162); assay: cell-based or functional assay
cynomolgus monkey IL-21 [2] = target: T2, cynomolgus monkey IL-21 (cynomolgus monkey, UniProt Q9HBE4 32-162 (human entry)); assay: assay not named; cynomolgus monkey IL-21
T2 construct: not in a public database; also called Cyno IL-21; cynomolgous monkey IL-21

human IL-21 [3] = target: T1, human IL-21; assay: cell-based or functional assay; remark: listed apart in the source
cynomolgus monkey IL-21 [4] = target: T2, cynomolgus monkey IL-21; assay: cell-based or functional assay
human IL-21 [5] = target: T1, human IL-21; assay: assay not named; human IL-21
human IL-21 [6] = target: T1, human IL-21; assay: cell-based or functional assay; remark: listed apart in the source
rat IL-21 = rat IL-21 (rat, UniProt A3QPB9 18-146); assay: KinExA solution equilibrium binding, 37 C, n=3
Procedure: (§1) Ab327 is an engineered, humanized monoclonal IgG4 antibody that binds and neutralizes human IL-21. The purpose of this study was to determine the binding affinity of Ab327 for human, cynomolgus monkey, mouse, rat, and rabbit IL-21 (the sequences are given below). […] KinExA solution equilibrium binding experiments were performed using a fixed antibody concentration protocol and 2-fold serial dilutions of IL-21. Samples were equilibrated at 37° C. for 6-36 hours prior to analysis. Free antibody in the equilibrated samples was detected using a Dylight 649-conjugated anti-human IgG Fc polyclonal antibody. The resulting percent free antibody versus antigen concentration data were fit to an “affinity, standard” binding model using the KinExA Pro software, and the best fit binding affinity value (KD) was determined
(§2) The average KD from three independent experiments along with the standard deviation (human, cynomolgus monkey, mouse, and rat) or from a single determination (rabbit IL-21) is summarized in Table 3 below (apparent solution equilibrium binding affinity (KD) of Ab327).

human IL-21 [7] = target: T1, human IL-21; assay: KinExA solution equilibrium binding, 37 C, n=3
Procedure: as §1, §2

mouse IL-21 = mouse IL-21 (mouse, UniProt Q9ES17 18-146); assay: KinExA solution equilibrium binding, 37 C, n=3
Procedure: as §1, §2

cynomolgus monkey IL-21 [8] = target: T2, cynomolgus monkey IL-21; assay: KinExA solution equilibrium binding, 37 C, n=3
Procedure: as §1, §2

human IL-2 = human IL-2 (human, UniProt P60568 21-153); assay: ELISA, Ab327 captured on plate, biotinylated cytokine
Procedure: (§3) The objective of this study was to determine the binding specificity of Ab327 to human IL-21 as compared with the other members of the common-gamma (γc) chain receptor cytokines. The cytokine receptor γc-chain family consists of six members, IL-2, IL-4, IL-7, IL-9, IL-15, and IL-21. All members of this family signal through receptor complexes that contain the γc subunit. The specificity of Ab327 for binding to other human γc chain cytokine family members was determined using an ELISA. Briefly, Ab327 was captured on an ELISA plate coated with goat anti-human kappa IgG. Cytokines labeled with biotin titrated from 100 nM-780 pM were then added to the plate for 1 hour at 37° C. and any bound cytokine was detected using Neutravidin labeled with alkaline phosphatase. Commercially available mouse monoclonal antibody to IL-2 and goat polyclonal antibodies to IL-4, IL-7, IL-9 and IL-15 captured with donkey anti-goat IgG gave positive signals after binding the biotinylated cytokines and detection with Neutravidin.

human IL-7 = target: T3, human IL-7 (human, UniProt P13232 26-177); assay: as above
T3 sequence (looked up): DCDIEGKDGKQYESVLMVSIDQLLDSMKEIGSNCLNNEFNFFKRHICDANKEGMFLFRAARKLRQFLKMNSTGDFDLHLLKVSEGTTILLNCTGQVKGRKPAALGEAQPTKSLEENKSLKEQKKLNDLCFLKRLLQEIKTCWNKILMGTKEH
Procedure: as §3

human IL-4 = target: T4, human IL-4 (human, UniProt P05112 25-153); assay: as above
T4 sequence (looked up): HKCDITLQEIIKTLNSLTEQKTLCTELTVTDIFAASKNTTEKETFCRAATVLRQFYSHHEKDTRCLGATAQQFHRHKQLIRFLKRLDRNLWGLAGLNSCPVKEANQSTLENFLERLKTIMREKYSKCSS
Procedure: as §3

human IL-9 = human IL-9 (human, UniProt P15248 19-144); assay: as above
Procedure: as §3

human IL-15 = human IL-15 (human, UniProt P40933 49-162); assay: as above
Procedure: as §3

human IL-21 [9] = target: T1, human IL-21; assay: assay not named

T2 sequence (Q9HBE4 other isoform, or with tags, fused parts or gaps): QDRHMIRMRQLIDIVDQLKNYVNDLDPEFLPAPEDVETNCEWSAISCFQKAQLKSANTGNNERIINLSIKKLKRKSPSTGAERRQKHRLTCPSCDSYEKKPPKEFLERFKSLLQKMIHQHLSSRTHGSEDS
T1 sequence (Q9HBE4 32-162): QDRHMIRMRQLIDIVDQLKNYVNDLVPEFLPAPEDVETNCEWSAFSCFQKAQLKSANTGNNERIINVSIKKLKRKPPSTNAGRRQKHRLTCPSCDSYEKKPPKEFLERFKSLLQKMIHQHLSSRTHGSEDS
Sequence of human IL-9 (P15248 19-144 limits assumed): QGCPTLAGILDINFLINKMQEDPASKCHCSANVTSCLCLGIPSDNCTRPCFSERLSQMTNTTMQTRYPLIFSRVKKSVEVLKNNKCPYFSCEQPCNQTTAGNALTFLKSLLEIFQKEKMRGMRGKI
Sequence of human IL-15 (P40933 49-162 limits assumed): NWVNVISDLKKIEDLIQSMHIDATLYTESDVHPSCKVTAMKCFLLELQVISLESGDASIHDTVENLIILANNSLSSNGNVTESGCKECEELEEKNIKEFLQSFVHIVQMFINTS
Sequence of human IL-2 (P60568 21-153 limits assumed): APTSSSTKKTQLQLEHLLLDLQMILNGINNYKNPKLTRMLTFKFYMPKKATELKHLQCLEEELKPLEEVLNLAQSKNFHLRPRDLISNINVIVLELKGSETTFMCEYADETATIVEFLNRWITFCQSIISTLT
Sequence of rat IL-21 (A3QPB9 18-146): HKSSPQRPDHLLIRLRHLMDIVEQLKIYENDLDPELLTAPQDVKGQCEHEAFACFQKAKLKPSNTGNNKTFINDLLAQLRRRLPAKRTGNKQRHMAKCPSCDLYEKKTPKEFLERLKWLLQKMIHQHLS

B1: Ab327 (antibody, human IgG4 S228P, kappa, F234A L235A, V domains shown)
VH: QVQLVQSGAEVKKPGASVKVSCKASGYTFTDYWMHWVRQAPGQGLEWMGLIDTSDVYTIYNQKFKGRVTMTRDTSTSTVYMELSSLRSEDTAVYYCARYGPLAMDYWGQGTLVTVSS
VL: DIQMTQSPSSLSASVGDRVTITCRASQDISNYLNWYQQKPGKAPKLLIYYTSRLHSGVPSRFSGSGSGTDFTLTISSLQPEDFATYYCQQFHTLRTFGGGTKVEIKR
modifications: N-linked glycosylation site at Asn294 of SEQ ID NO:3 may be glycosylated
notes: Engineered, humanized IgG4 (S225P, F231A/L232A) kappa antibody; expressed in HEK293 or CHO cells; also called final engineered humanized antibody; IL-21 antibody
Human IL-21 [1]
  IC50, IL-21-induced proliferation of primary human B cells (3H-thymidine uptake): 1150 pM
Cynomolgus monkey IL-21 [2]
  Kd: ~0.5 pM
Human IL-21 [3]
  IC50, IM9 pan-STAT-luciferase reporter assay, IL-21 at 66.67 pM: 46.7 pM
Cynomolgus monkey IL-21 [4]
  IC50, IM9 pan-STAT-luciferase reporter assay, IL-21 at 66.67 pM: 48.3 pM
Human IL-21 [5]
  Kd: ~0.5 pM
Human IL-21 [6]
  fold increase of plasma cells (CD38 high, IgD low), donor 1, 26.7 nM antibody (IL-21 without antibody: 176): 11.7 fold
  fold increase of plasma cells (CD38 high, IgD low), donor 2, 26.7 nM antibody (IL-21 without antibody: 114): 3.38 fold
  fold increase of plasma cells (CD38 high, IgD low), donor 3, 26.7 nM antibody (IL-21 without antibody: 47): 7.81 fold
  fold increase of plasma cells (CD38 high, IgD low), donor 4, 26.7 nM antibody (IL-21 without antibody: 68): 6.87 fold
  fold increase of plasma cells (CD38 high, IgD low), donor 5, 26.7 nM antibody (IL-21 without antibody: 22): 3.64 fold
Rat IL-21
  Kd: 230000 pM
Human IL-21 [7]
  Kd: 0.8 pM
Mouse IL-21
  Kd: 240000 pM
Cynomolgus monkey IL-21 [8]
  Kd: 0.3 pM
Human IL-2
  binding result: no binding (tested: 100 nM)
Human IL-7
  binding result: no binding (tested: 100 nM)
Human IL-4
  binding result: no binding (tested: 100 nM)
Human IL-9
  binding result: no binding (tested: 100 nM)
Human IL-15
  binding result: no binding (tested: 100 nM)

B2: humanized antibody with CDRs derived from antibody 15M2, utilizing the 1-46 heavy chain human framework and O2 human light chain framework (antibody, V domains shown)
VH: B1 VH with V56S
VL: DIQMTQSPSSLSASVGDRVTITCRASQDISNYLNWYQQKPGKAPKLLIYYTSRLHSGVPSRFSGSGSGTDFTLTISSLQPEDFATYYCQQFNTLRTFGGGTKVEIK
notes: Human IgG4 expression vectors; also called the humanized antibody
Human IL-21 [9]
  Kd: ~0.5 pM

B3: engineered antibody containing both heavy chain Asp55Glu and light chain Asn92His mutations (antibody, V domains shown)
VH: B1 VH with D55E, V56S
VL: B2 VL with N92H
notes: Human IgG4
Cynomolgus monkey IL-21 [2]
  Kd: ~2 pM
Human IL-21 [5]
  Kd: ~2 pM

From patent US20150266954A1 (Eli Lilly, published 2015)
